Test results from patent US5670477A, “Method to enhance permeability of the blood/brain blood/nerve bariers to therapeutic agents” (Poduslo; Joseph F., priority 1995, dated 1997).
Values joined by “and” are separate entries in the source; they are usually repeats but may differ in a detail not shown here. Equal entries are not always repeated.

What was measured:
[1] = plasma half-life from plasma clearance curves after I.V. bolus; details: for t1 (plasma half-life): Table 5, n = 6
Procedure: Animals and Reagents. Male Sprague-Dawley rats (24-weeks-old, 460-500 g) were obtained from Bio Lab (St. Paul) and were used to determine the PS and Vp measurements. All animals were kept for a minimum of 3 days under standard housing conditions and feeding schedules prior to the experiments. […] Insulin (Mr =6000) was obtained as humulin RU-100 from Eli Lily. […] Affinity purified human IgG was obtained from Accurate Chemicals (Mr =150,000). […] Plasma half-lives were determined from plasma clearance curves for all the proteins using the standard exponential decay equation in In Plot Scientific Graphics (Graph Pad Software).
The experimental protocol employed was based on the methods of Ohno et al. Am. […] Over the next 30 or 60 minutes, serial blood samples were collected from the brachial artery to generate a plasma washout curve.

[2] = PS and Vp of the blood-brain barrier, radioiodinated I.V. bolus; type: in vivo, rat (Sprague-Dawley)
Procedure: (§1) Free radioactive iodine was separated from the radiolabeled conjugates and agents by dialysis against 0.2M NaI.
(§2) After the final blood sample was collected, the animal was sacrificed, the brain and meninges removed, and the brain dissected into the cortex, caudateputamen (neostriatum), hippocampus, thalamus, brain stem, and cerebellum. The sciatic nerve was also rapidly removed and desheathed. Tissue was lyophilized, and dry weights were determined with a microbalance and converted to respective wet weights with wet weightry weight ratios previously determined for the desheathed rat sciatic nerve and the various brain regions. […] Statistical evaluations were performed using the t-test with significance accepted at the P<0.05 level.

[3] = PS and Vp of the blood-nerve barrier, radioiodinated I.V. bolus; type: in vivo, rat (Sprague-Dawley)
Procedure: as §1, §2

[4] = isoelectric focusing (Coomassie blue); type: physicochemical; details: Coomassie blue stain
Procedure: Protein samples were solubilized in SDS under reducing conditions with 2-mercaptoethanol followed by electrophoresis and staining with Coomassie blue. Pharmacia low molecular weight calibration kit was used for the protein standards. The 40% Bio-Lyte 3/10 ampholyte from Bio-Rad was used for isoelectric focusing with an acrylamide monomer concentration of 25% T and 3% C. Polymerization time was 15 minutes, with 5 minutes allowed for sample diffusion. Electrophoresis time was 45 minutes with increasing voltage to a maximum voltage of 450 volts for the last 15 minutes. IEF standards were obtained from Bio-Rad and contained nine natural proteins with the isoelectic points ranging from 4.45 to 9.6 and were visualized with Coomassie blue.

[5] = test system: choline acetyltransferase (ChAT); assay: choline acetyltransferase (ChAT) activity in brain regions after parenteral administration; type: in vivo, mouse (BALB/cJ)
Procedure: Adult BALB/cJ mice were used. The injection site was alternated on a daily basis between I.M. (thigh) and I.V. injection (tail vein), and the vehicle consisted of 1.5 mg/ml of BSA in 0.9% NaCl. The amount of NGF or PUT-NGF injected was 15 μg/day/animal for a duration of 14 days. Three groups of animals (n=7) were injected with either vehicle alone, NGF, and PUT-NGF. At the end of the experiment, the brains were removed and dissected into five regions which included the septum, hippocampus, nucleus basalis (substantia innominata), caudate-putamen (neostriatum), and cortex and stored at -70° C. The septum was dissected from the hippocampus at the fornix and continued into the basal forebrain.
Subsequently, a radiochemical assay using [1-^14 C] acetyl-CoA was performed according to the method of Fonnum. Fonnum, "A rapid radiochemical method for the determination of choline acetyltransferase", J. Neurochem., 24, 407 (1975). Data were expressed as cpm/μg protein and are given as mean ± SEM. Protein concentration was determined by the BCA procedure (Smith et al., "Measurement of protein using bicinchoninic acid", Anal. Biochem., 150, 76 (1985)) with the Pierce assay kit using bovine serum albumin as a standard. Statistical analysis was by the unpaired t-test (two-tailed) with significance accepted as P<0.05.

[6] = 15 μg/day/animal, 14 days, x ± SEM, n = 7

Molecule: INS: Insulin (Mr =6000) obtained as humulin RU-100 from Eli Lily [reference compound]
- t1/2 (plasma half-life) ([1]; Table 4, x ± SEM, n = 5): 1.18 ± 0.09 min
- PS of the BBB ([2]; brain stem, x ± SEM): 22.62 ± 3.35 ml/sec × 10^6
- Vp of the BBB ([2]; brain stem, x ± SEM): 12.35 ± 0.99 µL/g
- PS of the BBB ([2]; caudate-putamen, x ± SEM): 16.88 ± 1.79 ml/sec × 10^6
- Vp of the BBB ([2]; caudate-putamen, x ± SEM): 6.08 ± 0.30 µL/g
- PS of the BBB ([2]; cerebellum, x ± SEM): 20.12 ± 2.78 ml/sec × 10^6
- Vp of the BBB ([2]; cerebellum, x ± SEM): 10.56 ± 0.96 µL/g
- PS of the BBB ([2]; cortex, x ± SEM): 15.78 ± 2.45 ml/sec × 10^6
- Vp of the BBB ([2]; cortex, x ± SEM): 6.44 ± 0.49 µL/g
- Vp of the BBB ([2]; hippocampus, x ± SEM): 7.04 ± 0.68 µL/g
- PS of the BBB ([2]; thalamus, x ± SEM): 18.42 ± 2.41 ml/sec × 10^6
- PS of the BNB ([3]; nerve / endoneurium): 3.32e-05 mL/g/s
- PS of the BNB ([3]; nerve, x ± SEM): 33.19 ± 2.05 ml/g/sec × 10^6
- Vp (residual plasma volume) of the BNB ([3]; nerve, x ± SEM): 5.05 ± 0.87 µL/g

Molecule: SOD: superoxide dismutase isolated from bovine erythrocytes, monomeric molecular weight 16,250 daltons
- t1 (plasma half-life) ([1]; x ± SEM): 3.64 ± 0.21 min
- PS of the BBB ([2]; brain stem): 3.13e-06 mL/g/s
- PS of the BBB relative to native albumin ([2]; brain stem): 54 fold
- PS of the BBB ([2]; brain stem, x ± SEM): 3.19 ± 0.13 ml/g/sec × 10^6 and 3.13 ± 0.14 ml/g/sec × 10^6
- Vp of the BBB ([2]; brain stem, x ± SEM): 13.77 ± 2.10 µL/g and 16.26 ± 1.22 µL/g
- PS of the BBB ([2]; caudate-putamen): approximately 1.8 ×10^-6 ml/sec
- PS of the BBB ([2]; caudate-putamen, x ± SEM): 1.52 ± 0.07 ml/g/sec × 10^6 and 1.78 ± 0.11 ml/g/sec × 10^6
- Vp of the BBB ([2]; caudate-putamen, x ± SEM): 5.62 ± 0.23 µL/g and 5.76 ± 0.40 µL/g
- PS of the BBB ([2]; cerebellum, x ± SEM): 2.94 ± 0.14 ml/g/sec × 10^6 and 2.69 ± 0.11 ml/g/sec × 10^6
- Vp of the BBB ([2]; cerebellum, x ± SEM): 10.20 ± 0.89 µL/g and 14.61 ± 1.09 µL/g
- PS of the BBB ([2]; cortex): approximately 1.8 ×10^-6 ml/sec
- PS of the BBB relative to native albumin ([2]; cortex): 12 fold
- PS of the BBB ([2]; cortex, x ± SEM): 1.81 ± 0.06 ml/g/sec × 10^6 and 1.80 ± 0.09 ml/g/sec × 10^6
- Vp of the BBB ([2]; cortex, x ± SEM): 6.13 ± 0.34 µL/g and 5.77 ± 0.34 µL/g
- PS of the BBB ([2]; hippocampus, x ± SEM): 1.98 ± 0.08 ml/g/sec × 10^6 and 2.15 ± 0.01 ml/g/sec × 10^6
- Vp of the BBB ([2]; hippocampus, x ± SEM): 7.94 ± 0.25 µL/g and 7.26 ± 0.77 µL/g
- PS of the BBB ([2]; thalamus, x ± SEM): 2.61 ± 0.15 ml/g/sec × 10^6 and 2.71 ± 0.20 ml/g/sec × 10^6
- Vp of the BBB ([2]; thalamus, x ± SEM): 9.73 ± 0.43 µL/g and 12.83 ± 1.97 µL/g
- PS of the BNB ([3]; nerve): 1.79 ± 0.12 10^-6 mL/g/sec
- PS of the BNB ([3]; nerve / endoneurium): 2.24 10^-6 mL/g/sec
- PS of the BNB relative to native albumin ([3]; nerve, albumin compared from Poduslo et al. 1994): approximately 22 fold
- PS of the BNB ([3]; nerve, x ± SEM): 1.79 ± 0.12 ml/g/sec × 10^6 and 2.24 ± 0.22 ml/g/sec × 10^6
- Vp (residual plasma volume) of the BNB ([3]; nerve, x ± SEM): 1.87 ± 0.10 µL/g and 2.63 ± 0.22 µL/g
- pI (isoelectric point) [4]: 4.95

Molecule: SPD-SOD: SOD modified with spermidine using water-soluble carbodiimide at pH 4.7
- t1 (plasma half-life) ([1]; x ± SEM): 0.75 ± 0.05 min
- decrease of plasma half-life versus native protein ([1]; fold less than native protein): 4.9 fold
- PS of the BBB, RI vs. native protein ([2]; brain stem): 11.8
- Vp of the BBB, RI vs. native protein ([2]; brain stem): 1.0
- PS of the BBB ([2]; brain stem, x ± SEM): 36.85 ± 1.70 ml/g/sec × 10^6
- Vp of the BBB ([2]; brain stem, x ± SEM): 13.94 ± 1.29 µL/g
- PS of the BBB, RI vs. native protein ([2]; caudate-putamen): 18.3
- Vp of the BBB, RI vs. native protein ([2]; caudate-putamen): 1.4
- PS of the BBB ([2]; caudate-putamen, x ± SEM): 32.65 ± 2.03 ml/g/sec × 10^6
- Vp of the BBB ([2]; caudate-putamen, x ± SEM): 8.23 ± 0.40 µL/g
- PS of the BBB, RI vs. native protein ([2]; cerebellum): 13.9
- Vp of the BBB, RI vs. native protein ([2]; cerebellum): 1.2
- PS of the BBB ([2]; cerebellum, x ± SEM): 37.28 ± 1.01 ml/g/sec × 10^6
- Vp of the BBB ([2]; cerebellum, x ± SEM): 12.59 ± 0.90 µL/g
- PS of the BBB, RI vs. native protein ([2]; cortex): 13.9
- Vp of the BBB, RI vs. native protein ([2]; cortex): 1.2
- PS of the BBB ([2]; cortex, x ± SEM): 25.00 ± 0.90 ml/g/sec × 10^6
- Vp of the BBB ([2]; cortex, x ± SEM): 7.10 ± 0.31 µL/g
- PS of the BBB, RI vs. native protein ([2]; hippocampus): 13.4
- Vp of the BBB, RI vs. native protein ([2]; hippocampus): 1.1
- PS of the BBB ([2]; hippocampus, x ± SEM): 28.75 ± 1.39 ml/g/sec × 10^6
- Vp of the BBB ([2]; hippocampus, x ± SEM): 7.73 ± 0.58 µL/g
- PS of the BBB, RI vs. native protein ([2]; thalamus): 12.7
- Vp of the BBB, RI vs. native protein ([2]; thalamus): 1.2
- PS of the BBB ([2]; thalamus, x ± SEM): 34.35 ± 1.42 ml/g/sec × 10^6
- Vp of the BBB ([2]; thalamus, x ± SEM): 11.23 ± 0.63 µL/g
- PS of the BNB, RI vs. native protein ([3]; nerve): 10.8
- PS of the BNB, relative increase vs. native protein ([3]; nerve): 10.8 fold
- Vp of the BNB, RI vs. native protein ([3]; nerve): 1.2
- PS of the BNB ([3]; nerve / endoneurium): 2.41e-05 mL/g/s
- PS of the BNB ([3]; nerve, x ± SEM): 24.1 ± 1.23 ml/g/sec × 10^6
- Vp (residual plasma volume) of the BNB ([3]; nerve, x ± SEM): 3.03 ± 0.35 µL/g

B1: NGF: Ultrapure 2.5S nerve growth factor (printed 2.55 NGF) from Harlan Bioproducts (protein, UniProt P01139 122-241, looked up)
Beta-nerve growth factor: SSTHPVFHMGEFSVCDSVSVWVGDKTTATDIKGKEVTVLAEVNINNSVFRQYFFETKCRASNPVESGCRGIDSKHWNSYCTTTHTFVKALTTDEKQAAWRFIRIDTACVCVLSRKATRRG
- PS of the BBB ([2]; brain stem, x ± SEM): 3.38 ± 0.09 ml/g/sec × 10^6
- Vp of the BBB ([2]; brain stem, x ± SEM): 16.60 ± 1.01 µL/g
- PS of the BBB ([2]; caudate-putamen, x ± SEM): 1.64 ± 0.04 ml/g/sec × 10^6
- Vp of the BBB ([2]; caudate-putamen, x ± SEM): 5.78 ± 0.42 µL/g
- PS of the BBB ([2]; cerebellum, x ± SEM): 2.93 ± 0.10 ml/g/sec × 10^6
- Vp of the BBB ([2]; cerebellum, x ± SEM): 11.54 ± 0.71 µL/g
- PS of the BBB ([2]; cortex, x ± SEM): 1.91 ± 0.07 ml/g/sec × 10^6
- Vp of the BBB ([2]; cortex, x ± SEM): 7.19 ± 0.20 µL/g
- PS of the BBB ([2]; hippocampus, x ± SEM): 2.30 ± 0.10 ml/g/sec × 10^6
- Vp of the BBB ([2]; hippocampus, x ± SEM): 8.56 ± 0.21 µL/g
- PS of the BBB ([2]; thalamus, x ± SEM): 2.79 ± 0.09 ml/g/sec × 10^6
- Vp of the BBB ([2]; thalamus, x ± SEM): 11.65 ± 0.81 µL/g
- PS of the BNB ([3]; nerve, x ± SEM): 1.74 ± 0.15 ml/g/sec × 10^6
- Vp (residual plasma volume) of the BNB ([3]; nerve, x ± SEM): 1.53 ± 0.12 µL/g
- ChAT activity, caudate-putamen [5, 6]: 559 ± 47 cpm/μg protein
- ChAT activity, cortex [5, 6]: 294 ± 9 cpm/μg protein
- ChAT activity, hippocampus [5, 6]: 236 ± 17 cpm/μg protein
- ChAT activity, nucleus basalis [5, 6]: 109 ± 15 cpm/μg protein
- ChAT activity, septum [5, 6]: 443 ± 65 cpm/μg protein
- ChAT activity versus comparator, in words ([5]; NGF vs vehicle: five brain regions, PUT-NGF vs NGF: hippocampus, caudate-putamen, cortex): no significant difference
- ChAT activity, NGF vs. Vehicle % Increase ([5]; caudate-putamen): 18.4%
- ChAT activity, NGF vs. Vehicle % Increase ([5]; cortex): 4.6%
- ChAT activity, NGF vs. Vehicle % Increase ([5]; hippocampus): 0.4%
- ChAT activity, NGF vs. Vehicle % Increase ([5]; nucleus basalis): 12.4%
- ChAT activity, NGF vs. Vehicle % Increase ([5]; septum): 0.2%
- pI (isoelectric point) [4]: major band with an isoelectric point less than cytochrome c
